This note sets out measurements from the RNAGym collection of RNA variant scans (doi:10.1073/pnas.2313332121).

This sample holds only a part of the variants without activity.

First the molecules themselves.
B1: TPR 5TU (parent)
chain: GGAUCUUCUCGAUCUAACAAAAAAGACAAAUCUGCCACAAAGCUUGAGAGCAUCUUCGGAUGCAGAGGCGGCAGCCUUCGGUGGCGCGAUAGCGCCAACGUUCUCAACUAUGACACGCAAAACGCGUGCUCCGUUGAAUGGAGUUUAUCAUG

In this data set the parent is B1. In words: polymerase ribozyme fitness, log enrichment relative to wild type (log ratio); higher = more active; in vitro selection for triplet polymerase activity. The method in brief:
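After PCR construction and transcription, each subunit's mutant library from a heterodimeric triplet polymerase ribozyme was annealed with a biotinylated primer, the partner subunit and triplets. Incubation was frozen, at −7 °C, and extended constructs were gel-excised, bound to streptavidin beads and amplified by RT-PCR, in one selection round done in triplicate. Fitness is the logarithm of a genotype's enrichment divided by that of the wild type, from inverse-variance-weighted replicate averages of Illumina-sequenced inputs and outputs. The base of the logarithm is 2, and genotypes needed ≥10 input reads and ≥1 read per output.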
Regarding A16C G126A, the “polymerase ribozyme fitness (log ratio)” value is -0.0283.

In the case of U15A C36U C87U G124U A137C, the “polymerase ribozyme fitness (log ratio)” value is -4.03.

Take A16C A19U A73G C87A: the “polymerase ribozyme fitness (log ratio)” value is no more than -4.2.

On to U15G G48A U53A A73G C85A, for which the “polymerase ribozyme fitness (log ratio)” value is no more than -4.2.

Consider A16G A20C C69G C149G, for which the “polymerase ribozyme fitness (log ratio)” value was -4.02.

As for U15G C99U A142U, the “polymerase ribozyme fitness (log ratio)” value is -1.77.

On to U15C A20G A21U A39U C76U C85A C103A C108U, for which the “polymerase ribozyme fitness (log ratio)” value is no more than -4.2.

Consider U15G, for which the “polymerase ribozyme fitness (log ratio)” value is -0.334.

Consider U15C, for which the “polymerase ribozyme fitness (log ratio)” value worked out at 0.917.

As to U15A, the “polymerase ribozyme fitness (log ratio)” value is -0.182.

Regarding U15G A17U C79G G80A G81U G92A G124A A147U, the “polymerase ribozyme fitness (log ratio)” value is no more than -4.2.

In the case of U15A A73C G94A, the “polymerase ribozyme fitness (log ratio)” value is -3.39.

A16C G25C: the “polymerase ribozyme fitness (log ratio)” value was -2.46.

A16G A17G C57U A64C A91U C95U C118G G124A G126A G133C: the “polymerase ribozyme fitness (log ratio)” value was no more than -4.2.

In the case of U15C A21C G48C C93U U146G, the “polymerase ribozyme fitness (log ratio)” value was -0.835.

U15C A16G G59U A60G G92A C116U: the “polymerase ribozyme fitness (log ratio)” value was -0.967.

Consider A16C C18G A22G C27U A52G U61A A73G C85A U127C U139C, for which the “polymerase ribozyme fitness (log ratio)” value was no more than -4.2.

Regarding A16C A52U C85G A122G G124C, the “polymerase ribozyme fitness (log ratio)” value is no more than -4.2.

Consider A16C A20C G84U A97U U130C, for which the “polymerase ribozyme fitness (log ratio)” value was -4.17.

Turning to U15C C38U A49G C103G G141U, the “polymerase ribozyme fitness (log ratio)” value was no more than -4.2.

Turning to U15G U56G U77C C87G G94A U104G A106U C123U, the “polymerase ribozyme fitness (log ratio)” value was no more than -4.2.

Turning to A16C C87U G128U, the “polymerase ribozyme fitness (log ratio)” value was no more than -4.2.

In the case of A16C U44G A47G C51A A60C U77A, the “polymerase ribozyme fitness (log ratio)” value is no more than -4.2.

With U15G G84A C96A A119U, the “polymerase ribozyme fitness (log ratio)” value is -2.08.

For the variant U15G A20U A37G U45A G50C G70U C95U C118G G141C A147C G152A, the “polymerase ribozyme fitness (log ratio)” value was no more than -4.2.

As to U15G G84A, the “polymerase ribozyme fitness (log ratio)” value was -1.57.

With A16C A49U C85U U146C, the “polymerase ribozyme fitness (log ratio)” value is -2.7.

As to A16C G86U, the “polymerase ribozyme fitness (log ratio)” value is -2.65.

For U15A A142C, the “polymerase ribozyme fitness (log ratio)” value is -0.894.

As to A16G A17G C18A G58C A60G C95A U144C A150C, the “polymerase ribozyme fitness (log ratio)” value was no more than -4.2.

In the case of U15C G84U, the “polymerase ribozyme fitness (log ratio)” value is -0.83.

As to U15G A47C G83C, the “polymerase ribozyme fitness (log ratio)” value was -1.85.

On to A16G A20G A120C, for which the “polymerase ribozyme fitness (log ratio)” value was -1.84.

In the case of U15C A22G, the “polymerase ribozyme fitness (log ratio)” value amounted to 1.56.

A16C G59A C76A C85G U139A: the “polymerase ribozyme fitness (log ratio)” value is no more than -4.2.

For the variant A16C U33C U77A, the “polymerase ribozyme fitness (log ratio)” value is no more than -4.2.

Regarding A16C G25U C36U G59C C93U U104G G140C, the “polymerase ribozyme fitness (log ratio)” value was no more than -4.2.

Turning to A16C A20U, the “polymerase ribozyme fitness (log ratio)” value was -2.36.

On to U15G C93A U109C, for which the “polymerase ribozyme fitness (log ratio)” value is no more than -4.2.

Regarding U15G G71U, the “polymerase ribozyme fitness (log ratio)” value is -2.28.

On to U15G C18U U56C G83A C87U, for which the “polymerase ribozyme fitness (log ratio)” value was -1.58.

With U15C C36A A60U C85G C116U, the “polymerase ribozyme fitness (log ratio)” value was no more than -4.2.

Turning to A16C U45G A106G, the “polymerase ribozyme fitness (log ratio)” value was -0.613.

A16C U55A A142G A150G: the “polymerase ribozyme fitness (log ratio)” value was -3.06.

U15G A22C U148G: the “polymerase ribozyme fitness (log ratio)” value is no more than -4.2.

Take U15G G48U C54U C123A G136U: the “polymerase ribozyme fitness (log ratio)” value was -2.93.

U15C C18U C85G C118U G136U: the “polymerase ribozyme fitness (log ratio)” value is -3.19.

For A16C G42U G58C G84U G100A U102G A137U U144C, the “polymerase ribozyme fitness (log ratio)” value is no more than -4.2.

On to A16C G34U C93U C105U G112A, for which the “polymerase ribozyme fitness (log ratio)” value is no more than -4.2.

Consider U15A A17C A23U U55A G84A G92A G94A U102G C116G, for which the “polymerase ribozyme fitness (log ratio)” value was no more than -4.2.

On to A16G A26U U31C U82A A106U C131A U139G G141C, for which the “polymerase ribozyme fitness (log ratio)” value was no more than -4.2.

For U15C C75A C96G, the “polymerase ribozyme fitness (log ratio)” value was no more than -4.2.

With A16C A40C G59A C93U A106G, the “polymerase ribozyme fitness (log ratio)” value was -2.02.

In the case of U15G C54U A60U C75G A113G, the “polymerase ribozyme fitness (log ratio)” value was no more than -4.2.

For the variant U15G C76G G86C A122U G133C A142G U148G, the “polymerase ribozyme fitness (log ratio)” value was no more than -4.2.

With A16C C18G A47U G92A U101A, the “polymerase ribozyme fitness (log ratio)” value was no more than -4.2.

Regarding U15A C57A C76U G84C, the “polymerase ribozyme fitness (log ratio)” value was -1.52.

U15C A26U C57G G59U C87A G88A A107U U148G: the “polymerase ribozyme fitness (log ratio)” value was no more than -4.2.

U15G A110G: the “polymerase ribozyme fitness (log ratio)” value is -3.59.

Consider U15C A19G C69G C76A C79G G84U C95A A110U, for which the “polymerase ribozyme fitness (log ratio)” value was no more than -4.2.

Consider U15C C38A U61A C87U A122G, for which the “polymerase ribozyme fitness (log ratio)” value is -2.73.

For U15C A122U, the “polymerase ribozyme fitness (log ratio)” value is 0.45.

With A16G A20U C99U U102G, the “polymerase ribozyme fitness (log ratio)” value is no more than -4.2.

With U15G A49C G50A U78A A91C C93A G126U, the “polymerase ribozyme fitness (log ratio)” value was no more than -4.2.

Regarding U15C A19C C85U C87U, the “polymerase ribozyme fitness (log ratio)” value came to 0.246.

With A16G A23C U55G G88A C108A U111C A122C, the “polymerase ribozyme fitness (log ratio)” value was no more than -4.2.

As to A16C U82G, the “polymerase ribozyme fitness (log ratio)” value is -1.06.

In the case of A16C U61A G67A C87U A107U, the “polymerase ribozyme fitness (log ratio)” value was no more than -4.2.

U15C C51A G86U: the “polymerase ribozyme fitness (log ratio)” value was -1.6.

Turning to A16C A17G C57U G86A G133U, the “polymerase ribozyme fitness (log ratio)” value is no more than -4.2.

U15G A20U G25U C87U C103G U104G A121G G126U U134C C149A: the “polymerase ribozyme fitness (log ratio)” value is no more than -4.2.

U15A A39C C123U A137C U151C: the “polymerase ribozyme fitness (log ratio)” value was no more than -4.2.

For U15C A26C C36U G84A A147U, the “polymerase ribozyme fitness (log ratio)” value was -3.47.

A16C A113U C118G: the “polymerase ribozyme fitness (log ratio)” value was -3.27.

With U15C G84C C125U U134G A150U, the “polymerase ribozyme fitness (log ratio)” value is no more than -4.2.

U15C G46A G59A C93A: the “polymerase ribozyme fitness (log ratio)” value was -3.01.

For the variant C14U U145A, the “polymerase ribozyme fitness (log ratio)” value was -1.55.

In the case of C14U U56A, the “polymerase ribozyme fitness (log ratio)” value was -1.8.

For the variant U15A A47G U56A C57U G124C C149U, the “polymerase ribozyme fitness (log ratio)” value was -2.48.

For U15G C116U, the “polymerase ribozyme fitness (log ratio)” value was found to be 0.239.

As for U15A A21G C36G A60C C96A A147C, the “polymerase ribozyme fitness (log ratio)” value was no more than -4.2.

Regarding U15C C93G, the “polymerase ribozyme fitness (log ratio)” value was -2.27.

For A16C U55A, the “polymerase ribozyme fitness (log ratio)” value was -1.28.

As to U15A A52C A66C G84U, the “polymerase ribozyme fitness (log ratio)” value is no more than -4.2.
